{
  "source": "patent US20220289852A1",
  "about": "(ACCELERON PHARMA, published 2022)",
  "experiment_in_all_cases": "SPR (Biacore), receptor-Fc captured by anti-Fc antibody, ligand injected",
  "key": {"activin A": {"molecular_target": "T1, activin A (UniProt P08476 311-426)", "T1 sequence (looked up)": "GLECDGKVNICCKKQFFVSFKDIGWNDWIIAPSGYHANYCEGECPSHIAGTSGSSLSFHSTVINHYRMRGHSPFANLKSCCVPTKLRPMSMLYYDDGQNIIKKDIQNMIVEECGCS", "method": "(§1) A Biacore™-based binding assay was used to compare ligand binding selectivity of the ActRIIB-Fc:ALK7-Fc heterodimeric complex described above with that of ActRIIB-Fc and ALK7-Fc homodimeric complexes. The ActRIIB-Fc:ALK7-Fc heterodimer, ActRIIB-Fc homodimer, and ALK7-Fc homodimer were independently captured onto the system using an anti-Fc antibody. Ligands were injected and allowed to flow over the captured receptor protein. Results are summarized in the table below, in which ligand off-rates (kd) most indicative of effective ligand traps are denoted by bold text."}, "activin B": {"molecular_target": "T2, activin B (UniProt P09529 293-407)", "T2 sequence (looked up)": "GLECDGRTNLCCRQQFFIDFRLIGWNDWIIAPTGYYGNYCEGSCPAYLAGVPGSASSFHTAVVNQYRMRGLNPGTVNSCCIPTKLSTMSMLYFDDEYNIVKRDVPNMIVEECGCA", "method": "as §1"}, "activin C": {"molecular_target": "T3, activin C (UniProt P55103 237-352)", "T3 sequence (looked up)": "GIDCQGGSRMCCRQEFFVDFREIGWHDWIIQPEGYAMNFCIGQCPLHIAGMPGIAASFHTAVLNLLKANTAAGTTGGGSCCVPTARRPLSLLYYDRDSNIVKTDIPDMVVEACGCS", "method": "as §1"}, "activin AC": {"molecular_target": "T4, activin AC (UniProt P08476 311-426; P55103 237-352)", "T4 sequence (looked up) 1": "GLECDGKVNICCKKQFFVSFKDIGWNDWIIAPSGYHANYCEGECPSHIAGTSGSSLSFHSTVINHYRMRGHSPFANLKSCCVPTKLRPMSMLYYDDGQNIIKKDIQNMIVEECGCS", "T4 sequence (looked up) 2": "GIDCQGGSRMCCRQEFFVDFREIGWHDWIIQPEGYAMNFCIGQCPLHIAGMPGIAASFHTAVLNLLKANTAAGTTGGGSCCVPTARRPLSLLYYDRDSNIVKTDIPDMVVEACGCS", "method": "as §1"}, "BMP5": {"molecular_target": "T5, BMP5 (UniProt P22003 317-454, limits assumed)", "T5 sequence (looked up)": "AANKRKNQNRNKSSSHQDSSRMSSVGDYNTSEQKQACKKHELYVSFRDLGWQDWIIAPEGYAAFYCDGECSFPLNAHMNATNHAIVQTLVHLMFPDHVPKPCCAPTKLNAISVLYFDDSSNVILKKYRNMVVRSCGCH", "method": "as §1"}, "BMP6": {"molecular_target": "T6, BMP6 (UniProt P22004 375-513, limits assumed)", "T6 sequence (looked up)": "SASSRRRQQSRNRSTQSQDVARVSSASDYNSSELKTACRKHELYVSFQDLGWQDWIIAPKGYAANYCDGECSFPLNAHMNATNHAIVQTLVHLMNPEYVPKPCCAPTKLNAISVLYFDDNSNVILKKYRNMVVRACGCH", "method": "as §1"}},
  "data": [
    {"binder": "ActRIIB-Fc homodimer (Fc fusion, also called ActRIIB-Fc homodimeric complex; ActRIIB homodimer; not shown: linker and Fc domain of the homodimer) GRGEAETRECIYYNANWELERTNQSGLERCEGEQDKRLHCYASWRNSSGTIELVKKGCWLDDFNCYDRQECVATEENPQVYFCCCEGNFCNERFTHLPEAGGPEVTYEPPPTAPT", "values": [
      {"measurement": "Kd", "setting": "activin A", "value": 0.011, "unit": "nM"},
      {"measurement": "koff", "setting": "activin A", "value": 0.00014, "unit": "s⁻¹"},
      {"measurement": "kon", "setting": "activin A", "value": "1.3e+07", "unit": "M⁻¹ s⁻¹"},
      {"measurement": "Kd", "setting": "activin B", "value": 0.008, "unit": "nM"},
      {"measurement": "koff", "setting": "activin B", "value": 0.00016, "unit": "s⁻¹"},
      {"measurement": "kon", "setting": "activin B", "value": "1.5e+07", "unit": "M⁻¹ s⁻¹"},
      {"measurement": "binding result", "setting": "activin C", "value": "no binding"},
      {"measurement": "Kd", "setting": "activin AC", "value": 0.16, "unit": "nM"},
      {"measurement": "koff", "setting": "activin AC", "value": 0.0031, "unit": "s⁻¹"},
      {"measurement": "kon", "setting": "activin AC", "value": "2e+07", "unit": "M⁻¹ s⁻¹"},
      {"measurement": "Kd", "setting": "BMP5", "value": 2.9, "unit": "nM"},
      {"measurement": "koff", "setting": "BMP5", "value": 0.075, "unit": "s⁻¹"},
      {"measurement": "kon", "setting": "BMP5", "value": "2.6e+07", "unit": "M⁻¹ s⁻¹"},
      {"measurement": "Kd", "setting": "BMP6", "value": 0.16, "unit": "nM"},
      {"measurement": "koff", "setting": "BMP6", "value": 0.0039, "unit": "s⁻¹"},
      {"measurement": "kon", "setting": "BMP6", "value": "2.4e+07", "unit": "M⁻¹ s⁻¹"}
    ]}
  ]
}
